Measurements taken from the DeepSol protein solubility set.

Experiment: soluble on expression in E. coli; label from the status in PepcDB or PDB records

| Sequence | soluble on expression in E. coli |
| --- | --- |
| MDTSSFETDLSLFKYDDLEALPDEYRELTPTARTERIEAARAELGDDVVVLGHNYQRREIVEHADFVGDSYQLSKEAANADADYVIFGGVTFMAESADIITDDSQSVILPSMEASCPMAGMAEALQVDAAWADITAAAPDETIIPITYMNSYADLKAFCAEQGGLVCTSSNAHRAFEWAFERGDKVLFLPDKHLGENTAHRLGMADATVEWDPWAAEGKTAEEVADADIVLWDGYCQVHERFTPEHVAEVRADHEDANVVVHPECRREVVEAADVVGSTATITETVADADPGETWAIGTEIHLANHLQRWHPEVNVVPLCGDACMDCNAMRQIDPNYLAWVLEELVEGRERNVIEVDSEEAELAQVGLDRMLELLEHHHHHH | not soluble |
| MLKGKYTKIEKVNGVEREYLITDKYGITIGRIFIVDLNKDNRFCMFRMKIYKQGKSINTYIKEILSVFMEFLFKSNDINKVNIIVDEEVSTQPFVELGFAFEGIINKSIIEKNVLKDEFLFGMDYKNYNSDRINVFKLYGKSITLKVLTPEDAENMLQYYIKNKEHLKPFEPEREESFYTFEAQKQMLIENYKQFINGEGTNFGIYKDAKLIGKIQISGTIYGVFKSAIIGYSIDKDYQGKGYMKDALRVAEAYAFNVMNLHRIEASALVDNLRSQNVLIGCGFEKLGINKNYLFINGRWQDHITFYKTNNN | not soluble |
| GPGSMSAPTPRTGIIAGFNKGHVTTRRPRQPSPNDRFAVPHKHLRAVKAIIADLVGLSPLEKRVQEFLRVGKEKRALKYCKKRLGDFTAAKKKRSKMEEALRHATKKHH | soluble |
| MDEVGVASEHLPDLRDRTGHAVNLAVWGDHGPVLVRWDYGAHALPITIRVGATMPLLTSAIGRVYLAHLPATMTTSIVETELETLGTNAPSKSDVARLRATVLEQGVATISGEVIPGVMSVAAPVFPAGQSIPLAVAVALPSSLGDTATVAEVTLELLRTTKAISEDYGSVGGAAGGPIA | not soluble |
| MAHHHHHHMTNKKKMSNSETGGTRCVYVLSDIDGFKYRLVMEGDVRLLTTSKLKRYLQNATGLSAQQQELSFRGRVMQDGECGGDVGLVDGAVLQLRHVKGMRRTNSGDGRRVNRLPSSSMSMGGVAHRGRSSVVDAASCASPTAGLLTPLQGSHPRDGQNGGEAFTSPPPREMNYRSKRMGREAHALEIENARLEERLLEMERRLANASSDWRLQEEIEQLKGIIAQLLREKEAVGRSAEEKWRAKEEELVKELDLMREERRRLHREQTLFEEEQRALVRSLEEQVRSQQQRLLEQGTTITQQTRQRQPAMNVAEKVEKSLKQLSLELNIPQLHLDDNDTCVLPLGDGTNILVTLDTITERLFMYAVIANSLPSNAGKRLELFEMLLEGALLGRDMATGGVGVCLRNELIIMNVCVDIVHADEYALASIARPFMESVQHWSEAVKKMMPEKKN | not soluble |
| MTATEPTEKILPSPDYVQSLARGLAVIRCFDHRNQRRTLSDVARATDLTRATARRFLLTLVELGYVATDGSAFWLTPRVLELGYSYLSSLSLPEVAQPHLEKLSHKVHESSSVSILDGADIVYVARVPVSRIMTVGITIGTRLPAYATSMGRVLLAGLPDDELDAYLEKLDIQRLTERTITARDELKAAILAVRADGICVLDQELEAGLRSMAAPIRGASGLTVAAVNISTPAARYSLEDLHSDLIPSLRVTATDIEQDLATVNR | soluble |
| MQELYLLGVVPSRRFEAVVNSLSKTLDGPKTILEFWVVYRPKDVPPNLPRQPDSWLRLCSNIESHDETDTEWSKNTQWSMYLEGNSEPKREDKCGIRPVNRAKLTNGSVTEFVEKMGYEFSHEYIIQGLEYFFFDTTVRIYQTLIPSQQRSIKPPFHPMNEEQPWILHVYTHVADASNQVAMAKAEANLTKVKTLLSAFCDLKNVRL | soluble |
| MSLLSKVVTQIKGFLHDSVDKASDDGRTARQLIRDVGENEEKIKEALVESRSQAIISKQKVEDKQSAIALSKKRAAKAVELDKEDLARTILVEKRQQESDLAALQNQQAKFDNIVVTLTSRFNDIQKKRSEMERKADSIDLRSKVAAATEEATKLLDVGNFASYDSASKVFDRLEDNIAKKEAKSQARGEFIDAEKDKQDELVSLDRHGLDESIEDELAALRAMNKKQELEHHHHHH | not soluble |
| MTVDHRQWAREAIRIIEADFQRSADTHLIPLETPGLPGVELYFKDESSHPTGSLKHRLARSLFLYALCNGWLRPAAPVIEASSGSTAISEAYFARLLGLPFIAVMPASTSKEKIAQIAFYGGQSHLVEDPTQIYAESERLARESGGHFMDQFTYAERATDWRANNNIAESIFQQMRHEPYPTPTWLISSPGTGGTLATLGRYVRYRQHCTRVLCADAERSVFFDAYVSGDRGLTLDCGSRIEGIGRPRVEASFLPEVIDAMVKVPDAWSLAAMHYLARRLGRRVGGSSGTNLIGALVAARQMVAAGEKGSLVAILCDGGERYATTYYDPVWLARQGYALEPLVEALAACIERGVALPDGLLVAG | not soluble |
| MKLKSLDFPTGYFYFDNAAINSDKVEVIAVGYRNTDKTIKIFIEDVIHFRVVDESYFIDTFMDLISEDADRALLHENGGQSFFELLDECYAEWILKESYFPLNREFFKYYIFMFEQTFIEIIGSSATYSIIEG | not soluble |
| SATTIGPNTCSIDDYKPYCCQSMSGSASLGCVVGVIGSQCGASVKCCKDDVTNTGNSFLIINAANCVA | soluble |
| GPGSMSTGAELLSKALQLQHTRCETYRLWDAKFHCALGGALSASDFETAVNNSIIAAFRCVSLSFRELQCLCRDSTDDACRFLCVWIDELQELEQRHYNISVQFAQLVVQHCTALPLHSSTSQTDMCQTAANEEAENSGVENGSKEVQGTADVSENEKSTVANGERNNSSEVICASLHDRQLCELQRIIPLQAQSVLNYVTCRDDFFPSSSDDECEGDQTGGDGCTSNGADSEPGDLLVPFHHKSGVVATYSPGEVKKRCATFNAAVMPLWRSKLRLRQQLQEKMDELQEEITSASSVFP | soluble |
| TGEESLQQVAMRASRLGLPKEHLKMLSETNVDKICQIAEKEQPRIMVIDSIQVMHVSDVQSSPGSVAQVRESATALTRYAKQNNVAVFIVGHVTKDGTLAGPKVLEHIIDCSVLLDGGTDSRFRTLRSHKNRFGAVNELGVFAMTGQGLKEVSNPSAIFLSRGEEETSGSSVMVVWEGTRPLLVEIQALVDYSQLANPRRVAVGLEQNRLSLLLAVLHKHGGLQMADQDVFVNVVGGV | not soluble |
| MAHHHHHHMDVEHFIASLPPRTSVCGLHSVLSHASVHSLDSLGSTETPMLLTAQNFSFMSSGGDGDDNIGNAASTDSRATGAHGSGSNGSSHSGHHPTSPSPCGANASPFISKRLKYVIRSVALDHEECGGDSLSSRIASSYIGSSMPATNSQTRRRSERHVTFALEPEVLDARPRFSAYSRTVELLEQICLDKQSPWNALSLLQSALEERRGQLAQLRGQWDGALTGEAPTLTSSVTPKPCTITTSSGGGAVCHSRDKTTVPSPKSFPSATTSTLMTKGKSSRYSKVKPKACTTCSAM | not soluble |
| MCNDTATPQLEELVTTVANQLMTVDAATSAEVSQRVLAYLVEQLGVDVSFLRHNDRDRRATRLVAEWPPRLNIPDPDPLRLIYFADADPVFALCEHAKEPLVFRPEPATEDYQRLIEEARGVPVTSAAAVPLVSGEITTGLLGFIKFGDRKWLEHHHHHH | not soluble |
| MKLIPFPYPLNIGTDVVHLPRILRLINRPDYFHRFTRRILHEQEQRDFRTRFSLPPPSSGAEKTGLNPITPDMARWLAGRFAAKEAARKAAPAGASSLGWKDVIVRVGEADKGRPEIVYLDPMGCGETGGGRVGKLSISHDGDYVVATVLAAG | not soluble |
| MGSDKIHHHHHHMNKGVPLKTRAEVNAFNGSKMLKVIGLDEFVSNGICDNRHCLLLPNYNPNQRELLSLDWGAVAIQCGGIPSNLTIPVISKLEHPEVISTGDVIVLNENRVDILYRRKSTANLLFVTERCNHQCIMCSQPPKVLDDGWHFEECHQLLELIDRDIPVLGISGGEPTLQRDGFLKLLEHAKKALPSTQLHILTNGSAFEEYLYVEQIIQLGHQQIVWGIPIYGSTPQQHDYHTQVLGSFNKTMHGLYNLGHVGAQIELRVVLTRPIIENIVELSEFIARNLPFVSTVALMGLEPTGFARTNYEAVWCDLNDYQEELLEGTHVLLSSGLDTVLYNIPRCHVPKSLRSIAVQSISDWKNSTRKECEYCEEQNLCCGFFKSHTQRFSEQNVKPIQLERRSENVVRT | not soluble |
| MGSDKIHHHHHHMGSAAQFRRWIRPSARLCNAPFIRATVQVHWRNLYLLSRRSAPRRFHADQEKDMTPRSIIAAGALFAAVATAPAAWASSTYMGALTEAEVLAAQKAWGEALVAISREHEAGGQAKAKALASTVLDKAYGYNLGPVLFKPTLTMAPQTFRTTKDGALAYFVGGDPNYPNDKGFALQGWRSVAIKNAAIQIHGDVATTTGNVMITDKNGNVTTVDKTWAFKKTDDGAIRIVVHHSSLPYTAK | not soluble |
| MGSDKIHHHHHHMKKLIAIDLDGTLLNEKSTISEENTESLQRAQEAGMEVVIATGRAYFDVIDLLKPTGMHPWVIGANGATIHDPTGRRLLSIPLEHKQAIEILHWLEGKHFYYEVFSDEAIFTPQNGRELLAIEMDRLVSANPQTDLGTLSQAAAKQFSQTGFSYVSSYRDLLDTEVNIYNILAFSFDDQKLAKGWDRFKQTDNVTLVTSAEHNFELEHPLASKGNALTWLAKHLHIPLEHTVAIGDSMNDYSMITIAGYSIAMGNARAEIKQISHEVTLSNYEHGVSHSIERLLAAKRLGQN | not soluble |
| MGSDKIHHHHHHMKKIHGKVMVERHHLEILRAVERQGSLTAAAEQLHLTQSALSHAIRKLEQQLGTSVWLREGRQLRLTQAGHQLLALANRLLPQFEHAEMQIHQIAQGQRGSLRVGMECHPCYQWLLKVVGPYLQQWPDVDVDVKQEFQFGGMGALFGHDIDLLVTPDPLHKPGVRFEPVFDYEQVLVVSEDHSLADEKWVEPHQLEKETLITYPVAVERLDIFTRFFLPAHTAPARHKTIETTDIMLQMVAAGRGVSALPRWLVDDYARNMPIRALKLGQQGMPKQIFLGFRERDEAVDYLNAFVKLARSIRWN | not soluble |
| MHVTRNVGKSQKLHHVSLKQVLSYLEPHEQEDTKPVTSTKNKGFLLFNSHQNTLNTHMHGAMNSPCIDFVMFSRGQHDEDNMSRRPPWKRERSMSTQHHHLNLSPNEDEELANCLVLLSNSGDAHGGDQHKQHGHGKGKTVKKQKTAQVFQCKACKKVFTSHQALGGHRASHKKVKGCFASQDKEEEEEEEYKEDDDDNDEDEDEEEDEEDKSTAHIARKRSNAHECTICHRVFSSGQALGGHKRCHWLTPSNYLRMTSLHDHHHSVGRPQPLDQPSLDLNLACQEYSVDPTAMSVGMIERDGGGNNHNATSSSWLKLASGDWS | not soluble |
| MIRTLELAPHIEGGYFRQTKKASDTINLAGKGRALYTSIYFLLEETNPSHFHRLTADEIWYFHAGSPLTVHMITADGHYEAVTLGLDISKGQQLHYCVPKGTIWGSTVDKDDALVSCLVAPGFEFEDFELFERVDLLATYPEHKEMIERLTRYLEHHHHHH | not soluble |
| MRMNIRVALPQAQVHWCRGWLQAAHADALMQALLDQVQWEVHRIRMFGRVVDSPRLSSWIGDADASYRYSGTQFAPQPWLEALQPVRTRLQDETGSPFNSVLVNRYRSGADAMGWHSDDEPELGAQPVIASLSLGAARRFAFKHRHDAALKQTLELGHGDLLLMGGDTQRHYKHALPRTVKPVGERINLTFRQIAVRVSQRLEHHHHHH | not soluble |
| MVIEMEPDTHIISALVEHKPGVLQRVAGLFTRRGFNIENITVGESETPGIARMTIIARGDDRVLEQITKQLNKLIDVIKVRDLEPAATVKRELCMVKVHAPSESERSEIIQYTNIFRGRIVDVSPDALTVEVTGDSEKIDAFLELLRNFGIKELARTGPTAMSRGSRTM | not soluble |
